Reference: CN116284353A

Target: 柯萨奇病毒A16型病毒样颗粒 (Coxsackievirus A16) (UniProt Q65900)
Test: sandwich ELISA: rabbit anti-CV A16 VLP polyclonal serum (1:8000) as capture, CV A16 VLP titrated, mAb 10 ng/μL as detector; positive when OD450nm>0.15

UniProt Q65900, sequence (Q65900 2-862): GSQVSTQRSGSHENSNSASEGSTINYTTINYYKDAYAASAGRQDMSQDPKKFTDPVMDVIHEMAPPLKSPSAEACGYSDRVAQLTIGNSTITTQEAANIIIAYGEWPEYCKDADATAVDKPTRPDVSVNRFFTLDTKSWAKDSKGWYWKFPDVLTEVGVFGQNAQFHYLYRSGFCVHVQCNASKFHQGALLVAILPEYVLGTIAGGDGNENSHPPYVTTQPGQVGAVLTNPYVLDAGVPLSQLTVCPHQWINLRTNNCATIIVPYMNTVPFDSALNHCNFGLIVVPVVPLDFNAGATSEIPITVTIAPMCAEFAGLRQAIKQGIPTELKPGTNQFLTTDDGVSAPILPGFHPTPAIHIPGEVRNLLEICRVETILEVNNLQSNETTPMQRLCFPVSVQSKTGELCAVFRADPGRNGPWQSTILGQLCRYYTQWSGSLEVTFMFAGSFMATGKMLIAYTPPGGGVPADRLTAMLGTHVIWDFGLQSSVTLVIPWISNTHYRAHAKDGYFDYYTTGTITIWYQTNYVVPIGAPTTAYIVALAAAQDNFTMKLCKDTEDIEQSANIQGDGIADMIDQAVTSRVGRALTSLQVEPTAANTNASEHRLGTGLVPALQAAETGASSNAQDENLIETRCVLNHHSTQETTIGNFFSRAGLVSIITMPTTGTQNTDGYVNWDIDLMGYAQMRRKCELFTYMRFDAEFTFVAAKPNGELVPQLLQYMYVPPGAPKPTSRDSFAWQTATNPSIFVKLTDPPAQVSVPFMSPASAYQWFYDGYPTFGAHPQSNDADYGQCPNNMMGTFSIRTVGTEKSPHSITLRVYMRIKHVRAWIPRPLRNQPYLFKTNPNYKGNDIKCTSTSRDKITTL

B1: 单克隆抗体3H5 (antibody, mouse IgG1, kappa, V domains shown)
VH: EVKLEESGGGLVQPGGSMKLSCVGSGFTFSNYWMNWVRQSPDKGLEWVAEIRSKSNNYATHYAESVKGRLTISRDDSKSGVYLQMNNLRPEDTGIYYCTRSGAYWGQGTLVTVSA
VL: QIVLTQSPAIMSASPGEKVTMTCSASSSVSYIYWYQQKPGSSPRLLIYDTTRLASGVPVRFSGSGSGTSYSLTISRMEAEDAATYYCQHWNSYPFTFGSGTKLEIKR
最低检出限度: 62.5 ng/mL
